Assay results as given in patent publication US20080146512A1 (published 2008).

Tests used:
[1] = target: opioid growth factor receptor (OGFr) (human) (UniProt Q9NZT2); assay: cell-based or functional assay
Cdk4 = target: T1, Cdk4 (human, UniProt P11802 2-303); assay: Cdk4 immunoprecipitation from SCC-1 cell homogenates, Western blot with p16 antibodies
T1 construct: Endogenous protein immunoprecipitated from SCC-1 cell homogenates with a commercial polyclonal Cdk4 antibody; also called Cdk4 kinase
From the text: Cell cycle progression depends on both positive and negative regulators.

Chain of opioid growth factor receptor (OGFr) (human) (Q9NZT2 whole entry): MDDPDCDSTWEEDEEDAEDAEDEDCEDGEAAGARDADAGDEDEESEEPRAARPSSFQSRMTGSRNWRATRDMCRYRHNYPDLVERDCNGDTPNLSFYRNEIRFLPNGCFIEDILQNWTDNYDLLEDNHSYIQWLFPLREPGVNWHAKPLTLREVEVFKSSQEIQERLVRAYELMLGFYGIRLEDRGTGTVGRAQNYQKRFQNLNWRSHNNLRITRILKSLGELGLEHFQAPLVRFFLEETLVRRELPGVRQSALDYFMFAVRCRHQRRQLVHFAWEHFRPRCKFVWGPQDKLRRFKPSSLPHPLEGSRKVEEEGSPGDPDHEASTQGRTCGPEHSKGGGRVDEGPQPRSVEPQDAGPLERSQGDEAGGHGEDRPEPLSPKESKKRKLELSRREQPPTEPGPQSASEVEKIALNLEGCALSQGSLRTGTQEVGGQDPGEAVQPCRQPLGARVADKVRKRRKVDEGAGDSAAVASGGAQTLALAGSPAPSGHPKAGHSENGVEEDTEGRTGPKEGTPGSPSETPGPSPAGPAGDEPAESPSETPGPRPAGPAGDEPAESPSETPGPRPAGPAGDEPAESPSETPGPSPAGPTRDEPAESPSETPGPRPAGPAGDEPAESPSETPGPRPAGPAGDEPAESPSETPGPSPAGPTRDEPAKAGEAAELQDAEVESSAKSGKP
T1 sequence (P11802 2-303 limits assumed): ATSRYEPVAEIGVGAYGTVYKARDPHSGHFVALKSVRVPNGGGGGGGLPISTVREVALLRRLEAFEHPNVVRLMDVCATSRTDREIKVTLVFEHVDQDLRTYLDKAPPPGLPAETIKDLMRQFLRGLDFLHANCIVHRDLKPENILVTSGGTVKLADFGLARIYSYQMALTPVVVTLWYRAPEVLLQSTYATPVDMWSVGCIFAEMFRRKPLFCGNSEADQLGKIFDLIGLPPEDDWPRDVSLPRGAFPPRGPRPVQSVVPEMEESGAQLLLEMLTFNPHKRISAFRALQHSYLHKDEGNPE

| growth of control siRNA-treated SCC-1 cells (cell number at 96 h) [1] [%] | growth of wt SCC-1 cells (cell number at 96 h) [1] [%] | binding result (Cdk4) | Molecule |
| --- | --- | --- | --- |
| 46 | 29 | – | opioid growth factor (OGF), [Met5]-enkephalin (from UniProt P01210 100-104) (peptide) |
| – | – | binds | p16 (INK4a) (other, human, UniProt P42771 1-156, looked up, Endogenous protein co-immunoprecipitated with Cdk4 from SCC-1 cell homogenates and detected with a commercial p16 antibody) MEPAAGSSMEPSADWLATAAARGRVEEVRALLEAGALPNAPNSYGRRPIQVMMMGSARVAELLLLHGAEPNCADPATLTRPVHDAAREGFLDTLVVLHRAGARLDVRDAWGRLPVDLAEELGHRDVARYLRAAAGGTRGSNHARIDAAEGPSDIPD |
